Test results taken from patent US6376459.

Biological target: CD40CR (CD40 counter-receptor), 39 kD membrane protein of activated murine helper T cells (murine) (UniProt P27548)
Experiment: flow cytometry on activated Th, FITC-RG7 detection

Chain of UniProt P27548 (P27548 whole entry): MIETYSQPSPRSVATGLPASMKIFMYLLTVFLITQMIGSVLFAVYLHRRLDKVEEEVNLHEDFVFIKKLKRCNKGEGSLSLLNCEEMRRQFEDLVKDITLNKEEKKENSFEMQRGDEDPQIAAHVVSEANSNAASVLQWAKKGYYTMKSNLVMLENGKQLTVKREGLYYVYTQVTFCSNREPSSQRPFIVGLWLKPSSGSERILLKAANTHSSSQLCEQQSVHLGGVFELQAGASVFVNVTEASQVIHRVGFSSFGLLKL

“MR1, hamster anti-murine gp39 monoclonal antibody” gave a percent positive cells of 61%.
